Paper PMC6047744

Biological target: Polθ-helicase domain (human, UniProt O75417 1-894)
Assay: EMSA

Polθ-helicase domain, sequence (O75417 1-894): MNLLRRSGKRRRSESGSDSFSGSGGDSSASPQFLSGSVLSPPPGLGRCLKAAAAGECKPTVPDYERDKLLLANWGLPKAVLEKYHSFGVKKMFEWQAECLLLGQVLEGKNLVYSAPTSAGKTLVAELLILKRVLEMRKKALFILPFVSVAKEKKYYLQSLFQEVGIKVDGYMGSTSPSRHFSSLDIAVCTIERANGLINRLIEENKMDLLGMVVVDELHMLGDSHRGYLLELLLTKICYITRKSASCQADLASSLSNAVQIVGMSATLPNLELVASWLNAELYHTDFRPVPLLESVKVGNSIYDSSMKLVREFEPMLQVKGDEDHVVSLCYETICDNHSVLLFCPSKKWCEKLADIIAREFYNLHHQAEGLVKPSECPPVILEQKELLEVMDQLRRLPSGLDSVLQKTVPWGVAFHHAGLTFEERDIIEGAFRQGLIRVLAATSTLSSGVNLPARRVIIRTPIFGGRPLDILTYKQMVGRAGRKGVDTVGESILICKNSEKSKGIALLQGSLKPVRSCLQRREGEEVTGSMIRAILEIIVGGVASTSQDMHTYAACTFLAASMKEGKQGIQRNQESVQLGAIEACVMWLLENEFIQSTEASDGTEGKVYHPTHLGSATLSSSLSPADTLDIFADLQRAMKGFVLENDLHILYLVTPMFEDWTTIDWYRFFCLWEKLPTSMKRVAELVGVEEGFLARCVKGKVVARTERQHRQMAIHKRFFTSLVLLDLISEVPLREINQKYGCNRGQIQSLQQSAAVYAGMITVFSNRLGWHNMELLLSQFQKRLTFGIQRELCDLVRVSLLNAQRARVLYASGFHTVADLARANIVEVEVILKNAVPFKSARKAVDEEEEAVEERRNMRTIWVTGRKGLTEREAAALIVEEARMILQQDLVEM

TTTTATATTTTGTTTTGTGTTATTTTTTTCTTTAACAT (ssDNA) [SM76]
binding result: binds
